Data reported in PMC10713829 (Nature Communications, 2023).
Peptide text beside a SMILES is read from it.

Columns and labels:
[1] = biological target: T1, HLA-A*01:01/hβ2m (Homo sapiens, UniProt P04439, /R68K/S129P/T187R/V100A/V91M/W191G); test: Fluorescence anisotropy competition with TAMRA-NRAS^Q61K; format: binding
T1 construct: BirA substrate peptide (biotinylation tag, […]), seen only in the HDX-MS peptide map (C); made in house
Method: TAMRA association with K61 was modeled to not disrupt interaction with the HLA-A*01:01 groove because K61 is solvent-exposed. […] NRAS peptides were prepared by chemical synthesis (GenScript, Piscataway, USA). […] Data was recorded on a SpectraMax iD5 plate reader with an excitation filter of λex = 531 nm and an emission filter of λem = 595 nm with an PMT gain set to high, an integration time of 1200 msec and read height 0.5 mm. Each experiment was performed in triplicate (n = 3) and is representative of at least two independent experiments. Experimental values were subtracted from background r values obtained from incubation of TAMRA-NRAS^Q61K alone. […] IC50 values were obtain by fitting to a simple single-site (one phase association) model with DynaFit (http://www.biokin.com/dynafit).

[2] = biological target: T2, HLA-A*01:01/hβ2m (Homo sapiens, UniProt P04439, A114D/A174V/A182V/D101N/D185E/E176A/E190D/L180R/Q94H/R68K/S129P/T187R/V100A/V91M/W191G); test: Hydrogen-deuterium exchange mass spectrometry (HDX-MS) of empty and peptide-loaded complexes; settings: for Average % deuterium uptake: 600s
T2 construct: BirA substrate peptide (biotinylation tag, […]), seen only in the HDX-MS peptide map (C); made in house

[3] = fragment ASGSHSMRY 2-10, charge 2
[4] = fragment ASGSHSMRY 2-10, charge 3
[5] = fragment ASGSHSMRYF 2-11, charge 2

Row | Molecule | % deuterium uptake of peptide fragments corresponding to the NRAS peptide ([2]; HDX-MS of peptide/HLA-A*01:01/hβ2m, back-exchange corrected, pD 6.5, 25 °C, up to 600 s, biological triplicates) | Average % deuterium uptake ([2]; fragment ASGSHSMRY 2-10, charge 1) | Average % deuterium uptake [2, 3] | Average % deuterium uptake [2, 4] | Average % deuterium uptake [2, 5] | deuterium uptake of the HLA-A*01:01 α2-1 helix (residues 139–155) in the peptide-loaded complex ([2]; HDX-MS, back-exchange corrected, pD 6.5, 25 °C, comparison among peptide-loaded samples) | IC50 [1]
1 | CC[C@H](C)[C@H](N)C(=O)N[C@@H](CC(C)C)C(=O)N[C@@H](CC(=O)O)C(=O)N[C@H](C(=O)N[C@@H](C)C(=O)NCC(=O)N[C@@H](CCC(N)=O)C(=O)N[C@@H](CCC(=O)O)C(=O)N[C@@H](CCC(=O)O)C(=O)N[C@@H](Cc1ccc(O)cc1)C(=O)O)[C@@H](C)O [Q61] (H-ILDTAGQEEY-OH) | – | – | – | – | – | – | 278 ± 32 nM
2 | CC[C@H](C)[C@H](N)C(=O)N[C@@H](CC(C)C)C(=O)N[C@@H](CC(=O)O)C(=O)N[C@H](C(=O)N[C@@H](C)C(=O)NCC(=O)N[C@@H](CCCCN)C(=O)N[C@@H](CCC(=O)O)C(=O)N[C@@H](CCC(=O)O)C(=O)N[C@@H](Cc1ccc(O)cc1)C(=O)O)[C@@H](C)O [NRAS^Q61K] | – | – | – | – | – | – | 260 nM
3 | NRAS^Q61R: NRAS55-64 neoepitope peptide with Q61R mutation (ILDTAGREEY) | – | – | 83.2364% | 83.3198% | 78.2896% | – | –

Further lines, with some results ahead:

Row | % deuterium uptake of peptide fragments corresponding to the NRAS peptide ([2]; HDX-MS of peptide/HLA-A*01:01/hβ2m, back-exchange corrected, pD 6.5, 25 °C, up to 600 s, biological triplicates) | Average % deuterium uptake ([2]; fragment ASGSHSMRY 2-10, charge 1) | Average % deuterium uptake [2, 3] | Average % deuterium uptake [2, 4] | Average % deuterium uptake [2, 5] | deuterium uptake of the HLA-A*01:01 α2-1 helix (residues 139–155) in the peptide-loaded complex ([2]; HDX-MS, back-exchange corrected, pD 6.5, 25 °C, comparison among peptide-loaded samples) | Molecule | IC50 [1]
4 | approx. 75% | 85.9593% | 85.2218% | 85.2836% | 76.8148% | – | NRAS^Q61H: NRAS55-64 neoepitope peptide with Q61H mutation (ILDTAGHEEY) | –
5 | – | – | 83.6219% | 84.5527% | 77.0018% | significantly reduced deuterium uptake | NRAS^Q61L: NRAS55-64 neoepitope peptide with Q61L mutation (ILDTAGLEEY) | –
